T1: hCD73-his (human, UniProt P21589 26-546)
T1 construct: range 26-546; also called full length extracellular domain of human-CD73
T1 sequence (looked up): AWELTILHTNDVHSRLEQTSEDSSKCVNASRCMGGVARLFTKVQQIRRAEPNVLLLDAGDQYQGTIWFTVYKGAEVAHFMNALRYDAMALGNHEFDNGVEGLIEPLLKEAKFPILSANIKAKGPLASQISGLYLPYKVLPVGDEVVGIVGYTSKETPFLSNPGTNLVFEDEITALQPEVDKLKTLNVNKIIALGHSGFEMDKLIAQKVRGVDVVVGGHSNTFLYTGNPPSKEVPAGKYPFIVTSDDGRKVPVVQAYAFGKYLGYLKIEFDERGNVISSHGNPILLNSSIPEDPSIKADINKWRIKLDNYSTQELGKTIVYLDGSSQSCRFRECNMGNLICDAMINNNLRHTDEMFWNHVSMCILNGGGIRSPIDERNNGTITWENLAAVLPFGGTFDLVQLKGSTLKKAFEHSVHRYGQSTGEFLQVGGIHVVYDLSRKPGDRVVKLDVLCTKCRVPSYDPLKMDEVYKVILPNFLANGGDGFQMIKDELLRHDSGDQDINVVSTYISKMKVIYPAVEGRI

T2: human CD73 on cells (human, UniProt P21589 27-549)
T2 sequence (looked up): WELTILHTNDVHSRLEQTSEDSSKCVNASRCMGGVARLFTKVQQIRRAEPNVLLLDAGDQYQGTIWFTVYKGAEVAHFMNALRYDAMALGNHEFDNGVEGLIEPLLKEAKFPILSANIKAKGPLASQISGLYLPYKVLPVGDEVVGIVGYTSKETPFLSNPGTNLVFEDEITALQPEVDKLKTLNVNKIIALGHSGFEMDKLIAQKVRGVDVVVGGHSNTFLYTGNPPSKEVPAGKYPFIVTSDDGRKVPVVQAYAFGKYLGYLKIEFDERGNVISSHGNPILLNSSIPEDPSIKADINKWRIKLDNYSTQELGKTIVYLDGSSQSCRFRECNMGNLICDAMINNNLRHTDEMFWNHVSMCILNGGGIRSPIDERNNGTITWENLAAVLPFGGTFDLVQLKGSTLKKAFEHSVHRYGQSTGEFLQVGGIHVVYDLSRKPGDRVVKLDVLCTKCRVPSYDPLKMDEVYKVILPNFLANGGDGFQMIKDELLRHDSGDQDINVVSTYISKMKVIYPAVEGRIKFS


What follows are binders tested against T1, hCD73-his (assay: SEC of equimolar mAb + hCD73-his).
Procedure: The oligomeric state of CD73/antibody complexes were examined by size-exclusion chromatography coupled to an in-line multi-angle light scattering detector (SEC-MALS). Isocratic separations were performed on a Shodex PROTEIN KW-803 column connected to an Prominence Shimadzu UFLC in buffer containing 200 mM K₂HPO₄, 150 mM NaCl, pH 6.8, containing 0.02% Na azide (0.1 μm filtered) running at 0.5 mL/min. Samples were injected onto the column using a SIL-20AC Prominence Shimadzu® autosampler, and data were obtained from three online detectors connected in series: a Prominence SPD-20AD diode array UV/vis spectrophotometer followed by a Wyatt miniDAWN™ TREOS Multi-Angle Light Scattering Detector then a Wyatt Optilab T-rEX Refractive Index Detector® instrument. Data were collected and analyzed using Astra® (Wyatt) and Labsolutions® (Shimadzu) software.
CD73.4 antibodies having the heavy chain constant regions set forth in Table 14 were also tested for formation of high molecular weight complexes by SEC-MALS and DLS experiments, as described in Example 3.

UV % Peak1 (<12.9 min) [%] | UV % Peak4 (16.7-19.3 min) [%] | UV % Peak5 (>19.3 min) [%] | Binder
30.6 | 33.7 | 3.2 | CD73.4-IgG2.3-plusTHT (antibody, also called mAb-CD73.4-IgG2.3-plusTHT; CD73.4-Vh-hHC-IgG2.3-plusTHT) heavy: QVQLVESGGGVVQPGRSLRLSCAASGFTFSNYGMHWVRQAPGKGLEWVAVILYDGSNKYYPDSVKGRFTISRDNSKNTLYLQMNSLRAEDTAVYYCARGGSSWYPDSFDIWGQGTMVTVSSASTKGPSVFPLAPCSRSTSESTAALGCLVKDYFPEPVTVSWNSGALTSGVHTFPAVLQSSGLYSLSSVVTVPSSNFGTQTYTCNVDHKPSNTKVDKTVERKSCVETHTCPPCPAPPVAGPSVFLFPPKPKDTLMISRTPEVTCVVVDVSHEDPEVQFNWYVDGVEVHNAKTKPREEQFNSTFRVVSVLTVVHQDWLNGKEYKCKVSNKGLPAPIEKTISKTKGQPREPQVYTLPPSREEMTKNQVSLTCLVKGFYPSDIAVEWESNGQPENNYKTTPPMLDSDGSFFLYSKLTVDKSRWQQGNVFSCSVMHEALHNHYTQKSLSLSPGK light: not shown

Each binder was assayed against T2, human CD73 on cells (assay: cell-based or functional assay).

internalization T1/2, Calu6 [min] | internalization T1/2, NCI-H292 [min] | internalization Ymax, Calu6 [%] | internalization Ymax, NCI-H292 [%] | Binder
17.2 | 15.4 | 80.2 | 89.6 | CD73.4-IgG2.5-plusTHT (antibody, also called mAb-CD73.4-IgG2.5plusTHT/LC; CD73.4-Vh-hHC-IgG2.5plusTHT/LC) heavy: QVQLVESGGGVVQPGRSLRLSCAASGFTFSNYGMHWVRQAPGKGLEWVAVILYDGSNKYYPDSVKGRFTISRDNSKNTLYLQMNSLRAEDTAVYYCARGGSSWYPDSFDIWGQGTMVTVSSASTKGPSVFPLAPSSRSTSESTAALGCLVKDYFPEPVTVSWNSGALTSGVHTFPAVLQSSGLYSLSSVVTVPSSNFGTQTYTCNVDHKPSNTKVDKTVERKCCVETHTCPPCPAPPVAGPSVFLFPPKPKDTLMISRTPEVTCVVVDVSHEDPEVQFNWYVDGVEVHNAKTKPREEQFNSTFRVVSVLTVVHQDWLNGKEYKCKVSNKGLPAPIEKTISKTKGQPREPQVYTLPPSREEMTKNQVSLTCLVKGFYPSDIAVEWESNGQPENNYKTTPPMLDSDGSFFLYSKLTVDKSRWQQGNVFSCSVMHEALHNHYTQKSLSLSPGK light: not shown
20.9 | 18.3 | 79 | 89.6 | CD73.4-IgG2.5 (antibody, also called mAb-CD73.4-IgG2.5; CD73.4-Vh-hHC-IgG2.5) heavy: QVQLVESGGGVVQPGRSLRLSCAASGFTFSNYGMHWVRQAPGKGLEWVAVILYDGSNKYYPDSVKGRFTISRDNSKNTLYLQMNSLRAEDTAVYYCARGGSSWYPDSFDIWGQGTMVTVSSASTKGPSVFPLAPSSRSTSESTAALGCLVKDYFPEPVTVSWNSGALTSGVHTFPAVLQSSGLYSLSSVVTVPSSNFGTQTYTCNVDHKPSNTKVDKTVERKCCVECPPCPAPPVAGPSVFLFPPKPKDTLMISRTPEVTCVVVDVSHEDPEVQFNWYVDGVEVHNAKTKPREEQFNSTFRVVSVLTVVHQDWLNGKEYKCKVSNKGLPAPIEKTISKTKGQPREPQVYTLPPSREEMTKNQVSLTCLVKGFYPSDIAVEWESNGQPENNYKTTPPMLDSDGSFFLYSKLTVDKSRWQQGNVFSCSVMHEALHNHYTQKSLSLSPGK light: not shown
21.2 | 18 | 79.6 | 90.9 | CD73.4-IgG2.5G1.1f-KH (antibody, also called mAb-CD73.4-IgG2.5G1.1f-KH; CD73.4-Vh-hHC-IgG2.5G1.1f-KH) heavy: QVQLVESGGGVVQPGRSLRLSCAASGFTFSNYGMHWVRQAPGKGLEWVAVILYDGSNKYYPDSVKGRFTISRDNSKNTLYLQMNSLRAEDTAVYYCARGGSSWYPDSFDIWGQGTMVTVSSASTKGPSVFPLAPSSRSTSESTAALGCLVKDYFPEPVTVSWNSGALTSGVHTFPAVLQSSGLYSLSSVVTVPSSNFGTQTYTCNVDHKPSNTKVDKTVERKCCVECPPCPAPPVAGPSVFLFPPKPKDTLMISRTPEVTCVVVDVSHEDPEVKFNWYVDGVEVHNAKTKPREEQYNSTYRVVSVLTVLHQDWLNGKEYKCKVSNKALPSSIEKTISKAKGQPREPQVYTLPPSREEMTKNQVSLTCLVKGFYPSDIAVEWESNGQPENNYKTTPPVLDSDGSFFLYSKLTVDKSRWQQGNVFSCSVMHEALHNHYTQKSLSLSPGK light: not shown

Further lines, the binder ahead of its results:

Binder | internalization T1/2, Calu6 [min] | internalization T1/2, NCI-H292 [min] | internalization Ymax, Calu6 [%] | internalization Ymax, NCI-H292 [%]
CD73.4-IgG2.3-plusTHT (antibody, also called mAb-CD73.4-IgG2.3-plusTHT; CD73.4-Vh-hHC-IgG2.3-plusTHT) heavy: QVQLVESGGGVVQPGRSLRLSCAASGFTFSNYGMHWVRQAPGKGLEWVAVILYDGSNKYYPDSVKGRFTISRDNSKNTLYLQMNSLRAEDTAVYYCARGGSSWYPDSFDIWGQGTMVTVSSASTKGPSVFPLAPCSRSTSESTAALGCLVKDYFPEPVTVSWNSGALTSGVHTFPAVLQSSGLYSLSSVVTVPSSNFGTQTYTCNVDHKPSNTKVDKTVERKSCVETHTCPPCPAPPVAGPSVFLFPPKPKDTLMISRTPEVTCVVVDVSHEDPEVQFNWYVDGVEVHNAKTKPREEQFNSTFRVVSVLTVVHQDWLNGKEYKCKVSNKGLPAPIEKTISKTKGQPREPQVYTLPPSREEMTKNQVSLTCLVKGFYPSDIAVEWESNGQPENNYKTTPPMLDSDGSFFLYSKLTVDKSRWQQGNVFSCSVMHEALHNHYTQKSLSLSPGK light: not shown | 21.3 | 17.6 | 81.2 | 91.4
CD73.4-IgG2.3-plusGGG (antibody, also called mAb-CD73.4-IgG2.3-plusGGG; CD73.4-Vh-hHC-IgG2.3-plusGGG) heavy: QVQLVESGGGVVQPGRSLRLSCAASGFTFSNYGMHWVRQAPGKGLEWVAVILYDGSNKYYPDSVKGRFTISRDNSKNTLYLQMNSLRAEDTAVYYCARGGSSWYPDSFDIWGQGTMVTVSSASTKGPSVFPLAPCSRSTSESTAALGCLVKDYFPEPVTVSWNSGALTSGVHTFPAVLQSSGLYSLSSVVTVPSSNFGTQTYTCNVDHKPSNTKVDKTVERKSCVEGGGCPPCPAPPVAGPSVFLFPPKPKDTLMISRTPEVTCVVVDVSHEDPEVQFNWYVDGVEVHNAKTKPREEQFNSTFRVVSVLTVVHQDWLNGKEYKCKVSNKGLPAPIEKTISKTKGQPREPQVYTLPPSREEMTKNQVSLTCLVKGFYPSDIAVEWESNGQPENNYKTTPPMLDSDGSFFLYSKLTVDKSRWQQGNVFSCSVMHEALHNHYTQKSLSLSPGK light: not shown | 20.1 | 16.3 | 81.7 | 91.6
CD73.4-IgG2.5G1-KH (antibody, also called mAb-CD73.4-IgG2.5G1-KH; CD73.4-Vh-hHC-IgG2.5G1-KH) heavy: QVQLVESGGGVVQPGRSLRLSCAASGFTFSNYGMHWVRQAPGKGLEWVAVILYDGSNKYYPDSVKGRFTISRDNSKNTLYLQMNSLRAEDTAVYYCARGGSSWYPDSFDIWGQGTMVTVSSASTKGPSVFPLAPSSRSTSESTAALGCLVKDYFPEPVTVSWNSGALTSGVHTFPAVLQSSGLYSLSSVVTVPSSNFGTQTYTCNVDHKPSNTKVDKTVERKCCVECPPCPAPPVAGPSVFLFPPKPKDTLMISRTPEVTCVVVDVSHEDPEVKFNWYVDGVEVHNAKTKPREEQYNSTYRVVSVLTVLHQDWLNGKEYKCKVSNKALPAPIEKTISKAKGQPREPQVYTLPPSREEMTKNQVSLTCLVKGFYPSDIAVEWESNGQPENNYKTTPPVLDSDGSFFLYSKLTVDKSRWQQGNVFSCSVMHEALHNHYTQKSLSLSPGK light: not shown | 17 | 15.4 | 76 | 90.8
CD73.4-IgG2.3G1-KH (antibody, also called mAb-CD73.4-IgG2.3G1-KH; CD73.4-Vh-hHC-IgG2.3G1-KH) heavy: QVQLVESGGGVVQPGRSLRLSCAASGFTFSNYGMHWVRQAPGKGLEWVAVILYDGSNKYYPDSVKGRFTISRDNSKNTLYLQMNSLRAEDTAVYYCARGGSSWYPDSFDIWGQGTMVTVSSASTKGPSVFPLAPCSRSTSESTAALGCLVKDYFPEPVTVSWNSGALTSGVHTFPAVLQSSGLYSLSSVVTVPSSNFGTQTYTCNVDHKPSNTKVDKTVERKSCVECPPCPAPPVAGPSVFLFPPKPKDTLMISRTPEVTCVVVDVSHEDPEVKFNWYVDGVEVHNAKTKPREEQYNSTYRVVSVLTVLHQDWLNGKEYKCKVSNKALPAPIEKTISKAKGQPREPQVYTLPPSREEMTKNQVSLTCLVKGFYPSDIAVEWESNGQPENNYKTTPPVLDSDGSFFLYSKLTVDKSRWQQGNVFSCSVMHEALHNHYTQKSLSLSPGK light: not shown | 23.8 | 16.8 | 81.6 | 91.6
